From the nanobody polyreactivity screen of Harvey et al. (2022)

Test: yeast display, Sf9 membrane polyspecificity reagent, FACS + sequencing; frameworks hold sequencing errors
Method in brief: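 Genes from sorted yeast were amplified by colony PCR, read by MiSeq 2 × 250 sequencing and filtered on CDR length. These cells carried a synthetic nanobody library in Saccharomyces cerevisiae BJ5465 and were sorted by FACS into low and high (top ~1%) gates on anti-HA and streptavidin fluorescence. Polyreactivity is labelled according to the gate of origin.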

QVQLVESGGGLVQAGGSLRLSCAASGRIFTKYPMGRYRQATGKERELVAAITSGGRTYYADSVKGRFTISRDNAKNTVYLQMNSLKPEDTAVYFCAARYVQVVRKFGFRGQGTQVTVSS
polyreactivity (PSR sort gate): high polyreactivity

QVQLVESGGGLVQAGGSLRLSCAASGRIFILNTMGWYRQAPGKERELLAGISYSGSTYYADSVKGRFTISRDNAKNTVYLQMNSLKPDDTAVYYCAADYDAAWYNDGYYYWGQGTQVTVSS
polyreactivity (PSR sort gate): low polyreactivity

QVQLVESGGGLVQARGSLRLSCASSGFIFSRYAMGWYRQAPGKESELVAAITSGGSTYYADSVKGRFTISRDNAKNTVYLQMNSLKPEDTAVYYCNVVSKSRISQYVGYSYDYWGQGTQVTVSS
polyreactivity (PSR sort gate): high polyreactivity

QFQLVESGGGLVQAGGTLRLSCAASGSTFYHYPLGWYRQAPGTVRQLVARITSSSGSTYYADSVKGRFTISRDNAKNTVYLQMYSLKPEDTAVYYCAASYYIVPYLTYGYWGQGTQVTVSS
polyreactivity (PSR sort gate): low polyreactivity

QVQLVESGGGLVQAGGSLRLSSAASGSIFGYAMGCDRHAPGKERELVASTTYADSVKGRFTISRDNAKNTVYLQMNSLKPEDTAVYYCAAEDRPLYWRFPDEMDYWGQGTQVTVSS
polyreactivity (PSR sort gate): low polyreactivity

QVQLVESGGGLVQAGGSLRLSCAASGFIFPRYAMGWYRQAPGKERELVAAISYTGGSTYYADSVKGRFTISRDNAKNTVSLQMNSLKPEDTAVYYCYAYFLSQYQRGYRDDYWGQGTQVTVSS
polyreactivity (PSR sort gate): high polyreactivity

QVQLVESGGGLVQAGGSLRLSCAASGFTSWDNDMGWYRQAPGKERELVAAISRGGSTNYADSVKGRFTISRDNAKNTVYLQMNSLNPEDTAVYYCAAEDWYQRYGYEYDYWGQGTQVTVSS
polyreactivity (PSR sort gate): low polyreactivity

QVQLVESGGGLVQAGGSLRLSCAASGGIFAPNAMGWYRQAPGKERELVAAISTGGGSTRYADSVKGRFTISRDNAKNTVYLQMNSLKPEDTAVYYCAATRVGVRRMDYWGQGTQVTVSS
polyreactivity (PSR sort gate): low polyreactivity

QVQRVESGGGLVQAGGSLRLTSAASGSTFGTNAMGWYRQAPGTERELVATISKSGGSTYYADSVKGRFTISRDNAKNTVYLQMNSLKPEANAVYYCARRYRDYGRYGYWGQGTEVTVSS
polyreactivity (PSR sort gate): high polyreactivity

QVQLVESGGGLVQAGGSLRLSCAASGSTLNRNVMGWSRQAPGKERQMVAVITYGVGSTYYADSVKGRFTISRDNAKNTHYIQMNSLKPEDTAVYYCNKDPLVFDYWGQGTQVTVSS
polyreactivity (PSR sort gate): low polyreactivity

QVQLVESGGGLVHAGGSLRLSCAASGSTFYSNTMGWYRQAPGKERELVAAIDTSGDSTNYADSVKGRFTISRDNAKNTVYLQMNSLKPEDTAVYYCNRRVSDRAFPFNYWGQGTQVTVSS
polyreactivity (PSR sort gate): low polyreactivity

QVQLVESGGGLVQAGGSLRLSCAASGRTDNTNAMGWYRQAPGKERELVAAITRSGDSTYYADSVKGRFTISRDNAKNTVYLQMNSLKPEDTAVYYCAAYSRTLYPDRYYWGQGTQVTVSS
polyreactivity (PSR sort gate): high polyreactivity

QVQLVESGGGLVQAGGSLRLSCAASGNILFYNSMGWYRQAPGKERELVAAISRSAGSTYYADSVKGRFTISRDNAKNTVYLQMNRLKAEDTAVYYCAAQYFRRSGYWGQGTQVTVSS
polyreactivity (PSR sort gate): high polyreactivity

QVQLVESGGGLVQAGGSLRLSCAASGIIFYGYAMGRYRQAPGKERELVAAITSSGRTYYADSVKGRFTISRDNAKNTVYLQMNSLKPEDTAVYFCNVLLQRVYGTAPSFDYWGQGTQVTVSS
polyreactivity (PSR sort gate): high polyreactivity

QVQLVESGGGLVQAGGSLRLSCAASGSIFGVYTMGWYRQAPGKERELVAAITRSGGSTYYADSVKGRFTISRDNAKNTVYLQMNSLKPEDTAVYYCAARRAYVWCSQGYAHFEYWGQGTQVTVSS
polyreactivity (PSR sort gate): high polyreactivity

QVQLVESGGGLVQAGGSLRLSCAASGSIFSGYTMGWYRQAPGKERELVAGISYRGGSTYYADSVKGRFTNSRDNAKNTVYLQMNSLKPEDTAVYYCAALYYRRGSLNYEYWGQGTQVTVSS
polyreactivity (PSR sort gate): high polyreactivity

QVQLVESGGGLVQAGGSLRLTCAASGSTFVINVMGWYRQAPGKERELVAAISNGGRTYADSVKGRFTISRDNAKNTVYLQMNSLKPEDTAVYYCAADVSFTQSDGRLAEYGYWGQGTQVTVSS
polyreactivity (PSR sort gate): low polyreactivity

QVQLVESGGGLVQAGGSLRLSCAASGSTFDGYVMGWYRQAPGKEREFVAAISWSGGSTYYADSVKGRFTISRDNAKYTVYLQMNRLKREDTAVYYCAARVRRQHGYWGQGTQVTVST
polyreactivity (PSR sort gate): high polyreactivity

QVQLVESGGGLVQAGGSLRLSCAASGSNFTQYAMGWYRQAPGTERELVAAISSGTRTYYADSVKGRFTISRDNAKNTVYVQMNSLKPEDTAVYYCAARYRSYFYWSGYWGHGTQVTVSS
polyreactivity (PSR sort gate): low polyreactivity

QVHLVESGGGLVQAGGSLRLSCAASGRIFNPNAMGWYRQAPGKERELVAAITSGDSTNYADSVKGRFTISRDNAKNTVYLQMNSLKPEDTAVYYCAADWTYPYNSWGQGTQVTVSS
polyreactivity (PSR sort gate): low polyreactivity

QVQLVESGGGLVQAGGSLRLSCAASGSTFVPYTMGWYRQAPGKERELVAAISGSGGTDYADSVKGRFTISRDNAKNTVYLQMNSLKPEDTAVYYCATDGLDFWFIYDYWGQGTQVTVSS
polyreactivity (PSR sort gate): low polyreactivity

QVQLVESGGRLVQAGGSLRLTCDASGRTFDYNAMGWYRQAPWKERQLVAAITSRGGSTYYADSVKGRFTISRDNAKNTVYLQMNSLKPEDTAVYYCAAQHSVLAYFEYDYWGQGTQVTVSS
polyreactivity (PSR sort gate): low polyreactivity

QVKLVESGGGLVQAGGSLRLSCAASGRIFNWYAMGWYRQAPGKERELVAAITSGGSTNYADSVKGRFTISRDNAKNTVYLQMNSLKPEDTAVYFCNARGRFRGYRYYYWGQGTQVTVSS
polyreactivity (PSR sort gate): high polyreactivity

QVQLVESGGGLVQAGGRHRLSCAPSASIFSVNAMGWYRQAPGKERELVAAISWRGASTYYADSVKGRFTISRDNPKNTVYLQMNSLKPEDTAVYYCAAKGTGGDQYYAFDYWGQGTQVTVSS
polyreactivity (PSR sort gate): low polyreactivity

QVQLVESGGGLVQAGGSLRLSFAASGNIFVYYAMGWYRQAPGKVRELVAAISFRGGTTYYADSVKGRFTISRDNAKNTVYLQMNSLKPEDTAVYYCAARTMPRVSRKTFGYWGQGTQVTVSS
polyreactivity (PSR sort gate): low polyreactivity

QVQLVETGGGLVQAGASLRLSCAASGRTFVYNAMGWYRQAPGKEREFVAAIDGGGDRTFYADSVKGRFTISRDYAKNTVYLQMNSLKPEDTAVYYCARDPGDTYYYSYPEGDYWGQGTQVTVSS
polyreactivity (PSR sort gate): low polyreactivity

QVHLVDSGGGLVQAGGSLRLTCSASGFTFRYYTMGWYIQAPGKERELVAVIRSTGSTNYADSVKGRFTISRDNAKNTVYLQMNSLKPEDTAVYYFNAARGWYNPPKYGSIGFDFWGQGTQVTVSS
polyreactivity (PSR sort gate): high polyreactivity

QVQLVESGGGLVQAGGSLRLSCASSGITFPFYTMGWYRQAPGKERELVAAISSRGTSTYYADSVKGRFTISRDNAKNTVYLQMNSLKPEDTAVYYCKARATPQRAYDSWGQGTQVTVSS
polyreactivity (PSR sort gate): high polyreactivity

QVQLVESGGGLVQAGGSLRLSSAASGRTFHRNAMGWYRQAPGKERELVAAITGDGRTNYADSVKGRFTISRDNAKNTVYLQMNSLKPEDTAVYYCAARFSYRSYDYWGQGTQVTVSS
polyreactivity (PSR sort gate): low polyreactivity

QVQLGESGGGIVQAGGSLRLSCAASGIIFARYAMGWSRQAPGKERELVAAISRRGTSTYYADSVKGRFTISRDNAKNTVYLQMNSLKPEDTALYYCAARQLFYLPGPRVDAWGQGTQVTVSS
polyreactivity (PSR sort gate): high polyreactivity

QVQLVESGGGLLQAGGSLRLSCAASGSIFRRYAMGWYRQATGKERELVAAISRSGSSTYADSVKGRFTISRDNAKNTVYLQMNSLKPEDTAVYYCAASYAFLYYGYDSWGHGTQVTVSS
polyreactivity (PSR sort gate): low polyreactivity

QVQLVESGGGLVQAGGSLRLSCAASGRIFYVYAMGWYRQAPGKERELVAAISSDDGSTYYADSVKGRFTISRDNAKNTVYLQMNSLKPEVTAVYYCAKANKRGRYNYWGQGTQVTVSS
polyreactivity (PSR sort gate): high polyreactivity
